Laboratory results as given in the supplement of paper PMC7125110.
± gives the standard error. For some of these results: Fewer inactive variants are shown than the library holds.

B1: glmS ribozyme (parent)
chain: AUAAAAGCGCCAGAACUACAGAAAUGUAGUUGACGAGGAGGAGGUUUAUCGAAUUUUCGGCGGAUGCCUCCAAA

Columns and labels:
Details in all cases: with glucosamine-6-phosphate
glucosamine-6-phosphate [1] = variants of: B1; test: kcat; higher = faster cleavage; RNA array
Summary of the method: (§1)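 Using a hybridised Cy3 probe at 37 °C, barcoded ribozyme variants transcribed in situ by E. coli RNA polymerase on sequenced MiSeq chips were monitored across tiles imaged over ~14 h. The flow contained glucosamine-6-phosphate from 40 μM to 10 mM in HEPES/KCl/Mg(OAc)2 buffer. Signals were normalised to baseline and to non-cleaving reference variants before per-tile medians were fit to one- or two-exponential decays to yield kobs. Weighted Michaelis–Menten fits across concentrations gave kcat and KM.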

glucosamine-6-phosphate [2] = variants of: B1; test: KM; higher = weaker cofactor use; RNA array
Summary of the method: as §1

glucosamine-6-phosphate [3] = variants of: B1; test: self-cleavage kobs at 640 uM GlcN6P; higher = faster cleavage; RNA array
Summary of the method: as §1

glucosamine-6-phosphate [4] = variants of: B1; test: self-cleavage kobs at 2500 uM GlcN6P; higher = faster cleavage; RNA array
Summary of the method: as §1

glucosamine-6-phosphate [5] = variants of: B1; test: self-cleavage kobs at 10000 uM GlcN6P; higher = faster cleavage; RNA array
Summary of the method: as §1

glucosamine-6-phosphate [6] = variants of: B1; test: self-cleavage kobs at 40 uM GlcN6P; higher = faster cleavage; RNA array
Summary of the method: as §1

glucosamine-6-phosphate [7] = variants of: B1; test: self-cleavage kobs at 160 uM GlcN6P; higher = faster cleavage; RNA array
Summary of the method: as §1

A12C U69A
kcat (glucosamine-6-phosphate [1]): 0.000833 ± 0.00013 s⁻¹
KM (glucosamine-6-phosphate [2]): 4.33 ± 1.1 mM
self-cleavage kobs at 640 uM GlcN6P (glucosamine-6-phosphate [3]): 0.000117 ± 2.1e-05 s⁻¹
self-cleavage kobs at 2500 uM GlcN6P (glucosamine-6-phosphate [4]): 0.00027 ± 4.6e-05 s⁻¹
self-cleavage kobs at 10000 uM GlcN6P (glucosamine-6-phosphate [5]): 0.000614 ± 9.4e-05 s⁻¹

A12G A48G
kcat (glucosamine-6-phosphate [1]): 2.09e-05 ± 3.3e-06 s⁻¹
self-cleavage kobs at 40 uM GlcN6P (glucosamine-6-phosphate [6]): < 1e-05 s⁻¹

A12G G41C
kcat (glucosamine-6-phosphate [1]): 0.000171 ± 2.4e-05 s⁻¹
self-cleavage kobs at 40 uM GlcN6P (glucosamine-6-phosphate [6]): < 1e-05 s⁻¹
self-cleavage kobs at 2500 uM GlcN6P (glucosamine-6-phosphate [4]): 3.14e-05 ± 1.1e-05 s⁻¹
self-cleavage kobs at 10000 uM GlcN6P (glucosamine-6-phosphate [5]): 8.02e-05 ± 1.1e-05 s⁻¹

A12G G41A
kcat (glucosamine-6-phosphate [1]): 0.00048 ± 0.00011 s⁻¹
KM (glucosamine-6-phosphate [2]): 9.92 ± 3.5 mM
self-cleavage kobs at 640 uM GlcN6P (glucosamine-6-phosphate [3]): 3.72e-05 ± 1.2e-05 s⁻¹
self-cleavage kobs at 2500 uM GlcN6P (glucosamine-6-phosphate [4]): 8.85e-05 ± 1.7e-05 s⁻¹
self-cleavage kobs at 10000 uM GlcN6P (glucosamine-6-phosphate [5]): 0.000246 ± 3.7e-05 s⁻¹

A12U A15U A39C
kcat (glucosamine-6-phosphate [1]): 0.000282 ± 8.6e-05 s⁻¹
self-cleavage kobs at 160 uM GlcN6P (glucosamine-6-phosphate [7]): 6.33e-05 ± 1.3e-05 s⁻¹
self-cleavage kobs at 640 uM GlcN6P (glucosamine-6-phosphate [3]): 9.89e-05 ± 1.6e-05 s⁻¹
self-cleavage kobs at 2500 uM GlcN6P (glucosamine-6-phosphate [4]): 0.000199 ± 3.2e-05 s⁻¹
self-cleavage kobs at 10000 uM GlcN6P (glucosamine-6-phosphate [5]): 0.000374 ± 8.8e-05 s⁻¹

A12U C67G C68G
kcat (glucosamine-6-phosphate [1]): 4.76e-05 ± 1.4e-05 s⁻¹
self-cleavage kobs at 160 uM GlcN6P (glucosamine-6-phosphate [7]): 7.57e-05 ± 3.2e-05 s⁻¹
self-cleavage kobs at 640 uM GlcN6P (glucosamine-6-phosphate [3]): 6.79e-05 ± 1.9e-05 s⁻¹
self-cleavage kobs at 2500 uM GlcN6P (glucosamine-6-phosphate [4]): 4.47e-05 ± 1.5e-05 s⁻¹

A12U C58G
kcat (glucosamine-6-phosphate [1]): 0.0011 ± 0.00023 s⁻¹
KM (glucosamine-6-phosphate [2]): 6.47 ± 2 mM
self-cleavage kobs at 160 uM GlcN6P (glucosamine-6-phosphate [7]): 2.07e-05 ± 6e-06 s⁻¹
self-cleavage kobs at 640 uM GlcN6P (glucosamine-6-phosphate [3]): 0.000109 ± 1.2e-05 s⁻¹
self-cleavage kobs at 2500 uM GlcN6P (glucosamine-6-phosphate [4]): 0.000287 ± 3e-05 s⁻¹
self-cleavage kobs at 10000 uM GlcN6P (glucosamine-6-phosphate [5]): 0.000677 ± 6.4e-05 s⁻¹

A12U C58U
kcat (glucosamine-6-phosphate [1]): 7.97e-05 ± 5.4e-06 s⁻¹
KM (glucosamine-6-phosphate [2]): 0.662 ± 0.22 mM
self-cleavage kobs at 40 uM GlcN6P (glucosamine-6-phosphate [6]): < 1e-05 s⁻¹
self-cleavage kobs at 640 uM GlcN6P (glucosamine-6-phosphate [3]): 4.45e-05 ± 1.4e-05 s⁻¹
self-cleavage kobs at 2500 uM GlcN6P (glucosamine-6-phosphate [4]): 5.86e-05 ± 9.3e-06 s⁻¹
self-cleavage kobs at 10000 uM GlcN6P (glucosamine-6-phosphate [5]): 7.81e-05 ± 1.1e-05 s⁻¹

A12G U31G
kcat (glucosamine-6-phosphate [1]): 0.000573 ± 0.00012 s⁻¹
KM (glucosamine-6-phosphate [2]): 4.66 ± 1.5 mM
self-cleavage kobs at 640 uM GlcN6P (glucosamine-6-phosphate [3]): 6.61e-05 ± 8.2e-06 s⁻¹
self-cleavage kobs at 2500 uM GlcN6P (glucosamine-6-phosphate [4]): 0.000254 ± 3.4e-05 s⁻¹
self-cleavage kobs at 10000 uM GlcN6P (glucosamine-6-phosphate [5]): 0.000374 ± 3.9e-05 s⁻¹

A12U U30A
kcat (glucosamine-6-phosphate [1]): 0.0401 ± 0.009 s⁻¹
KM (glucosamine-6-phosphate [2]): 1.98 ± 0.54 mM
self-cleavage kobs at 40 uM GlcN6P (glucosamine-6-phosphate [6]): 0.000782 ± 0.00011 s⁻¹
self-cleavage kobs at 640 uM GlcN6P (glucosamine-6-phosphate [3]): 0.0124 ± 0.0029 s⁻¹
self-cleavage kobs at 10000 uM GlcN6P (glucosamine-6-phosphate [5]): 0.0321 ± 0.007 s⁻¹

A12U U30G
kcat (glucosamine-6-phosphate [1]): 0.0227 ± 0.0046 s⁻¹
KM (glucosamine-6-phosphate [2]): 0.983 ± 0.28 mM
self-cleavage kobs at 40 uM GlcN6P (glucosamine-6-phosphate [6]): 0.000931 ± 0.00012 s⁻¹
self-cleavage kobs at 640 uM GlcN6P (glucosamine-6-phosphate [3]): 0.00794 ± 0.0013 s⁻¹
self-cleavage kobs at 2500 uM GlcN6P (glucosamine-6-phosphate [4]): 0.0279 ± 0.0091 s⁻¹
self-cleavage kobs at 10000 uM GlcN6P (glucosamine-6-phosphate [5]): 0.0211 ± 0.0039 s⁻¹

A12U C67G
kcat (glucosamine-6-phosphate [1]): 0.00362 ± 0.00062 s⁻¹
KM (glucosamine-6-phosphate [2]): 0.791 ± 0.21 mM
self-cleavage kobs at 40 uM GlcN6P (glucosamine-6-phosphate [6]): 0.00019 ± 2.1e-05 s⁻¹
self-cleavage kobs at 160 uM GlcN6P (glucosamine-6-phosphate [7]): 0.000542 ± 0.00011 s⁻¹
self-cleavage kobs at 640 uM GlcN6P (glucosamine-6-phosphate [3]): 0.0015 ± 0.00029 s⁻¹
self-cleavage kobs at 2500 uM GlcN6P (glucosamine-6-phosphate [4]): 0.00226 ± 0.00035 s⁻¹
self-cleavage kobs at 10000 uM GlcN6P (glucosamine-6-phosphate [5]): 0.00426 ± 0.00054 s⁻¹

A12G C16G
kcat (glucosamine-6-phosphate [1]): 0.000144 ± 1.3e-05 s⁻¹
KM (glucosamine-6-phosphate [2]): 7.16 ± 1.3 mM
self-cleavage kobs at 2500 uM GlcN6P (glucosamine-6-phosphate [4]): 3.92e-05 ± 1.4e-05 s⁻¹
self-cleavage kobs at 10000 uM GlcN6P (glucosamine-6-phosphate [5]): 8.35e-05 ± 1.2e-05 s⁻¹

A12G C16A
kcat (glucosamine-6-phosphate [1]): 3.87e-05 ± 9.1e-07 s⁻¹
KM (glucosamine-6-phosphate [2]): 1.33 ± 0.2 mM
self-cleavage kobs at 40 uM GlcN6P (glucosamine-6-phosphate [6]): < 1e-05 s⁻¹
self-cleavage kobs at 10000 uM GlcN6P (glucosamine-6-phosphate [5]): 3.41e-05 ± 6.7e-06 s⁻¹

A12G C34U C58U C68G
kcat (glucosamine-6-phosphate [1]): 3.16e-05 ± 4.5e-06 s⁻¹

A12U U69G C70G
kcat (glucosamine-6-phosphate [1]): 2.63e-05 ± 1.3e-05 s⁻¹
self-cleavage kobs at 160 uM GlcN6P (glucosamine-6-phosphate [7]): < 1e-05 s⁻¹

G13A C67A C68U C70G
kcat (glucosamine-6-phosphate [1]): < 1e-05 s⁻¹
self-cleavage kobs at 40 uM GlcN6P (glucosamine-6-phosphate [6]): < 1e-05 s⁻¹
